We go through one molecule from patent US20200087392A1 (Novartis, published 2020).

In the assay the target is T1, human β-klotho (human, UniProt Q86Z14 52-997, limits assumed).
T1 construct: Antigen of the SET assay; also called beta-klotho
T1 sequence: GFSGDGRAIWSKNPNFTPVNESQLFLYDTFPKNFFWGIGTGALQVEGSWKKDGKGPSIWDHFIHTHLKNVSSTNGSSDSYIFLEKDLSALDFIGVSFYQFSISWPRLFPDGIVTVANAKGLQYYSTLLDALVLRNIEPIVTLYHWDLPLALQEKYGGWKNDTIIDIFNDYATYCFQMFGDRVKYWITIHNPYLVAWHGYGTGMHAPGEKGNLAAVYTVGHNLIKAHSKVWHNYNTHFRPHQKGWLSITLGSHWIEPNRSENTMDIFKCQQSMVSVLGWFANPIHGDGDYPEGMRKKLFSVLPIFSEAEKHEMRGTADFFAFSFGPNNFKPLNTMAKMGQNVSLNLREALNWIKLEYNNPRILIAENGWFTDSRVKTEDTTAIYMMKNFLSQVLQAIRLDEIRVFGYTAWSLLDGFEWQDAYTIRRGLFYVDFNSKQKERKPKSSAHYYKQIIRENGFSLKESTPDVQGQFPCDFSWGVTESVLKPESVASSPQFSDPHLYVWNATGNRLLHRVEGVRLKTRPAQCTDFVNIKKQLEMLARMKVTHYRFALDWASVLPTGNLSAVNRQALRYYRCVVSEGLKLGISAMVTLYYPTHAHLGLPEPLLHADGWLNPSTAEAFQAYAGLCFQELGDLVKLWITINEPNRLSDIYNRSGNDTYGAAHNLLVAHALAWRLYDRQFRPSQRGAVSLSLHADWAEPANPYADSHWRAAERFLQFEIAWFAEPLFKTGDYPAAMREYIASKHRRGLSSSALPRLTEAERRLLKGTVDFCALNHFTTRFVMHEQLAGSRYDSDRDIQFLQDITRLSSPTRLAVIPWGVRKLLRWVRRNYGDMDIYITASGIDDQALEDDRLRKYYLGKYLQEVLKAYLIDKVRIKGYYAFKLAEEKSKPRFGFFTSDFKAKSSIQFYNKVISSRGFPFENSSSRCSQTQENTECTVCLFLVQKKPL
The experiment in a line: solution equilibrium titration (SET).

B1: NOV001 (antibody, human IgG1, kappa, L234A L235A, V domains shown)
VH: QVQLVQSGAEVKKPGSSVKVSCKASGYTFTDYYINWVRQAPGQGLEWMGRIHPGSGNTYYNEKFQGRVTLTADKSTSTAYMELSSLRSEDTAVYYCAILLLRSYGMDDWGQGTTVTVSS
VL: DVVMTQTPLSLSVTPGQPASISCKSSQSIVHSSGNTYLEWYLQKPGQSPQLLIYKVSNRFSGVPDRFSGSGSGTDFTLKISRVEAEDVGVYYCFQGSHIPYTFGQGTKLEIKR
notes: also called IgG1 LALA version of NOV003
For the molecule B1, the Kd – broadly, the equilibrium constant for the complex coming apart – is ~0.042 nM.
